According to patent publication US9260728B2, “Terpene synthases from Santalum” (UNIVERSITY OF BRITISH COLUMBIA, priority 2009, dated 2016):

What was measured:
Assay type in all cases: biochemical
[1] = GC-FID determination of reaction products of terpene synthases from FPP with magnesium or manganese
[2] = Steady-state enzyme kinetic assays
Experimental: For determination of steady-state enzyme kinetic constants, conditions were as described previously except the enzyme concentration was kept at 10 nM. Substrate concentrations ranged from 1 uM to 100 uM, and reactions were incubated at 30° C. for exactly 5 mins. Reactions were quenched by the addition of 500 μL 0.5 M EDTA, pH 8.0 and vortexed as above.
(§1) GC-FID was performed on a Shimadzu GC2010 with a 30 m 0.25 mm ID, 0.25 μm film DB-WAX column with He as the carrier gas. Splitless injection (2 μL) was used for all analyses. Conditions were as follows: injector 200° C., detector 250° C., column flow rate 1 mL/min. Oven program: 40° C. for 3 min, then 8° C./min to 180° C., held 5 min, then 10° C./min to 220° C., held 10 min. Needle height was adjusted to only draw from the upper organic layer of all sample vials. GC-MS was performed on a Shimadzu GC2010 with the same DB-WAX column and using He as the carrier gas. Conditions were as follows: injector 200° C., MS interface 240° C., ion source 200° C. Oven program: 40° C. for 3 min, then 8° C./min to 180° C., held 5 min, then 10° C./min to 220° C., held 10 min. Solvent cut time was set to 5 min. For product identification, total ion monitoring was used, scanning from m/z 45 to m/z 300. For kinetic assays, single ion monitoring of the sesquiterpene base ions m/z 91, 93 and 94 were used. Likewise monoterpene base ions (m/z 69, 71 and 93) were monitored. An internal standard (isobutyl benzene, 30 μM) was added to the hexane used to overlay each reaction. Detector response factors were calculated based on the santalene standard prepared earlier and used to determine the product concentrations for kinetic analysis.

[3] = GC-FID determination of reaction products of terpene synthases from FPP with magnesium or manganese; remark: listed apart in the source
Experimental: Enzyme assays for all recombinant proteins were done in triplicate using the GC vial method described by O'Maille et al. (Anal. Biochem. 335:[…] (2004). For enzyme assays where only product identification was needed, 10 μg of protein was used in a final volume of 500 μL of reaction buffer (25 mM HEPES, 10% glycerol, 5 mM DTT and 10 mM of either Mg^2+ or Mn^2+. Substrates (FPP and GPP) were added to a final reaction concentration of 100 μM. Vials were overlaid with 500 μL of hexane to trap volatile products and incubated at 30° C. for 2 h. Mixtures were vortexed for 1 min to extract all volatiles and the vials were centrifuged to separate the organic layer.
Product mixtures were analysed by GC-MS in scan mode for product identification. A standard containing the three santalenes and α-trans-bergamotene was prepared by flash chromatography of 2 mL of neat S. album oil over silica and eluted in hexane. A final yield of 25 mg was resuspended in EtOAc and purity was confirmed by GC-FID with conditions described below. All mass spectra were compared to the NIST 2005 library and the literature. Retention indices were determined for all compounds using an n-alkane standard and compared to the literature (R. P. Adams, “Identification of essential oil components by gas chromatography/mass spectrometry,” Allured Publishing Corporation, Carol Stream, Ill. (1995)).
as §1

Relative % composition in oil produced by enzyme: epi-β-santalol [1]: 4.8%
Relative % composition in oil produced by enzyme: α-santalol [1]: 51.3%
Relative % composition in oil produced by enzyme: E-α-bergamotol ([3]; GC-FID): 14.5%
Relative % composition in oil produced by enzyme: β-santalol ([3]; GC-FID): 27.4%
B1: SauSSy: santalene synthase from Santalum austrocaledonicum, gene SEQ ID NO:3, protein SEQ ID NO:4 (protein, listed as Santalum austrocaledonicum)
chain: MDSSTATAMTAPFIDPTDHVNLKTDTDASENRRMGNYKPSIWNYDFLQSLATHHNIVEERHLKLAEKLKGQVKFMFGAPMEPLAKLELVDVVQRLGLNHRFETEIKEALFSIYKDESNGWWFGHLHATSLRFRLLRQCGLFIPQDVFKTFQNKTGEFDMKLCDNVKGLLSLYEASYLGWKGENILDEAKAFATKYLKSAWENISEKWLAKRVKHALALPLHWRVPRIEARWFIEAYEQEANMNPTLLKLAKLDFNMVQSIHQKEIGELARWWVTTGLDKLAFARNNLLQSYMWSCAIASDPKFKLARETIVEIGSVLTVVDDAYDVYGSMDELDLYTSSVERWSCVEIDKLPNTLKLIFMSMFNKTNEVGLRVQHERGYNSIPTFIKAWVQQCKSYQKEARWFHGGHTPPLEEYSLNGLVSIGFPLLLITGYVAIAENEAALDKVHPLPDLLHYSSLLSRLINDIGTSPDEMARGDNLKSIHCYMNGTGASEEVAREHIKGVIEENWKILNQCCFDQSQFQEPFITFNLNSVRGSHFFYEFGDGFGVTDSWTKVDMKSVLIDPIPLGEE
modifications: SauSSy Protein
Kcat ([2]; FPP): 0.0277 s⁻¹
Vmax ([2]; assays using FPP): 0.54 µM/min
E-β-farnesene among reaction products (GC-FID) ([3]; FPP Mg, mean): 1.4
Z-β-farnesene among reaction products (GC-FID) ([3]; FPP Mg, mean): 0.6
epi-β-santalene among reaction products (GC-FID) ([3]; FPP Mg, mean): 4.8
α-E-bergamotene among reaction products (GC-FID) ([3]; FPP Mg, mean): 14.5
α-santalene among reaction products (GC-FID) ([3]; FPP Mg, mean): 51.3
β-santalene among reaction products (GC-FID) ([3]; FPP Mg, mean): 27.4
E-β-farnesene among reaction products (GC-FID) ([3]; FPP Mg, replicate 1): 1.5
Z-β-farnesene among reaction products (GC-FID) ([3]; FPP Mg, replicate 1): 0.6
epi-β-santalene among reaction products (GC-FID) ([3]; FPP Mg, replicate 1): 4.7
α-E-bergamotene among reaction products (GC-FID) ([3]; FPP Mg, replicate 1): 13.8
α-santalene among reaction products (GC-FID) ([3]; FPP Mg, replicate 1): 51.7
β-santalene among reaction products (GC-FID) ([3]; FPP Mg, replicate 1): 27.8
E-β-farnesene among reaction products (GC-FID) ([3]; FPP Mg, replicate 2): 1.3
Z-β-farnesene among reaction products (GC-FID) ([3]; FPP Mg, replicate 2): 0.6
epi-β-santalene among reaction products (GC-FID) ([3]; FPP Mg, replicate 2): 4.6
α-E-bergamotene among reaction products (GC-FID) ([3]; FPP Mg, replicate 2): 14.6
α-santalene among reaction products (GC-FID) ([3]; FPP Mg, replicate 2): 51.5
β-santalene among reaction products (GC-FID) ([3]; FPP Mg, replicate 2): 27.5
E-β-farnesene among reaction products (GC-FID) ([3]; FPP Mg, replicate 3): 1.5
Z-β-farnesene among reaction products (GC-FID) ([3]; FPP Mg, replicate 3): 0.5
epi-β-santalene among reaction products (GC-FID) ([3]; FPP Mg, replicate 3): 5.1
α-E-bergamotene among reaction products (GC-FID) ([3]; FPP Mg, replicate 3): 15.2
α-santalene among reaction products (GC-FID) ([3]; FPP Mg, replicate 3): 50.7
β-santalene among reaction products (GC-FID) ([3]; FPP Mg, replicate 3): 27.0
E-β-farnesene among reaction products (GC-FID) ([3]; FPP Mn, mean): 8.5
Z-β-farnesene among reaction products (GC-FID) ([3]; FPP Mn, mean): 0.9
epi-β-santalene among reaction products (GC-FID) ([3]; FPP Mn, mean): 1.2
α-E-bergamotene among reaction products (GC-FID) ([3]; FPP Mn, mean): 73.6
α-santalene among reaction products (GC-FID) ([3]; FPP Mn, mean): 10.2
β-santalene among reaction products (GC-FID) ([3]; FPP Mn, mean): 5.3
E-β-farnesene among reaction products (GC-FID) ([3]; FPP Mn, replicate 1): 8.3
Z-β-farnesene among reaction products (GC-FID) ([3]; FPP Mn, replicate 1): 0.9
epi-β-santalene among reaction products (GC-FID) ([3]; FPP Mn, replicate 1): 1.4
α-E-bergamotene among reaction products (GC-FID) ([3]; FPP Mn, replicate 1): 72.5
α-santalene among reaction products (GC-FID) ([3]; FPP Mn, replicate 1): 10.3
β-santalene among reaction products (GC-FID) ([3]; FPP Mn, replicate 1): 5.3
E-β-farnesene among reaction products (GC-FID) ([3]; FPP Mn, replicate 2): 8.5
Z-β-farnesene among reaction products (GC-FID) ([3]; FPP Mn, replicate 2): 0.9
epi-β-santalene among reaction products (GC-FID) ([3]; FPP Mn, replicate 2): 0.8
α-E-bergamotene among reaction products (GC-FID) ([3]; FPP Mn, replicate 2): 73.8
α-santalene among reaction products (GC-FID) ([3]; FPP Mn, replicate 2): 10.5
β-santalene among reaction products (GC-FID) ([3]; FPP Mn, replicate 2): 5.5
E-β-farnesene among reaction products (GC-FID) ([3]; FPP Mn, replicate 3): 8.6
Z-β-farnesene among reaction products (GC-FID) ([3]; FPP Mn, replicate 3): 0.9
epi-β-santalene among reaction products (GC-FID) ([3]; FPP Mn, replicate 3): 1.2
α-E-bergamotene among reaction products (GC-FID) ([3]; FPP Mn, replicate 3): 74.4
α-santalene among reaction products (GC-FID) ([3]; FPP Mn, replicate 3): 9.7
β-santalene among reaction products (GC-FID) ([3]; FPP Mn, replicate 3): 5.1
